Data taken from the supplement of paper PMC11908140.

B1: library; numbered along this chain (parent)
chain: MRKPRAAVGSGHRKQAASQEGRQKHAKNNSQAKPSACDGLARQPEEVVLQASVSSYHLFRDVAEVTAFRGSLLSWYDQEKRDLPWRRRAEDEMDLDRRAYAVWVSEVMLQQTQVATVINYYTGWMQKWPTLQDLASASLEEVNQLWAGLGYYSRGRRLQEGARKVVEELGGHMPRTAETLQQLLPGVGRYTAGAIASIAFGQATGVVDGNVARVLCRVRAIGADPSSTLVSQQLWGLAQQLVDPARPGDFNQAAMELGATVCTPQRPLCSQCPVESLCRARQRVEQEQLLASGSLSGSPDVEECAPNTGQCHLCLPPSEPWDQTLGVVNFPRKASRKPPREESSATCVLEQPGALGAQILLVQRPNSGLLAGLWEFPSVTWEPSEQLQRKALLQELQRWAGPLPATHLRHLGEVVHTFSHIKLTYQVYGLALEGQTPVTTVPPGARWLTQEEFHTAAVSTAMKKVFRVYQGQQPGTCMGSKRSQVSSPCSRKKPRMGQQVLDNFFRSHISTDAHSLNSAAQ

Variants of: B1
Test: 8OG:A repair function score (normalized; synonymous = 0, nonsense = -1) (normalized log-likelihood score); higher = more repair activity (WT-like)
Conditions: with 8OG:A DNA repair reporter (GFP) in HEK-293 MUTYH KO cells
Procedure, shortened: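 Per-tile Rosace fitness scores were converted to a normalized repair function score anchored on synonymous and nonsense distributions. That scale puts synonymous medians at 0 and nonsense medians at -1. Variants with starting counts under 300 counts per million were discarded. Input came from sorting viable mCherry+ MUTYH knockout HEK-293 cells, carrying lentiviral MUTYH cDNA NNN codon-scan libraries in 10 pg/ml doxycycline and an 8OG:A GFP repair reporter, into GFP+ and GFP− bins at 72 h, three replicates per tile, followed by tile amplicon sequencing.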
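Note: cells sorted at 72 h after reporter transfection.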

Row | Variant | 8OG:A repair function score
1 | MRKPRAAVGSGHRKQAASQEGRQKHAKNNSQAKPSACDGLARQPEEVVLQASVSSYHLFRDVAEVTAFRGSLLSWYDQEKRDLPWRRRAEDEMDLDRRAYAVWVSEVMLQQTQVATVINYYTGWMQKWPTLQDLASASLEEVNQLWAGLGYYSRGRRLQEGARKVVEELGGHMPRTAETLQQLLPGVGRYTAGAIASIAFGQATGVVDGNVARVLCRVRAIGADPSSTLVSQQLWGLAQQLVDPARPGDFNQAAMELGATVCTPQRPLCSQCPVESLCRARQRVEQEQLLASGSLSGSPDPEECAPNTGQCHLCLPPSEPWDQTLGVVNFPRKASRKPPREESSATCVLEQPGALGAQILLVQRPNSGLLAGLWEFPSVTWEPSEQLQRKALLQELQRWAGPLPATHLRHLGEVVHTFSHIKLTYQVYGLALEGQTPVTTVPPGARWLTQEEFHTAAVSTAMKKVFRVYQGQQPGTCMGSKRSQVSSPCSRKKPRMGQQVLDNFFRSHISTDAHSLNSAAQ [V301P] | -0.31
2 | MRKPRAAVGSGHRKQAASQEGRQKHAKNNSQAKPSACDGLARQPEEVVLQASVSSYHLFRDVAEVTAFRGSLLSWYDQEKRDLPWRRRAEDEMDLDRRAYAVWVSEVMLQQTQVATVINYYTGWMQKWPTLQDLASASLEEVNQLWAGLGYYSRGRRLQEGARKVVEELGGHMPRTAETLQQLLPGVGRYTAGAIASIAFGQATGVVDGNVARVLCRVRAIGADPSSTLVSQQLWGLAQQLVDPARPGDFNQAAMELGATVCTPQRPLCSQCPVESLCRARQRVEQEQLLASGSLSGSPDSEECAPNTGQCHLCLPPSEPWDQTLGVVNFPRKASRKPPREESSATCVLEQPGALGAQILLVQRPNSGLLAGLWEFPSVTWEPSEQLQRKALLQELQRWAGPLPATHLRHLGEVVHTFSHIKLTYQVYGLALEGQTPVTTVPPGARWLTQEEFHTAAVSTAMKKVFRVYQGQQPGTCMGSKRSQVSSPCSRKKPRMGQQVLDNFFRSHISTDAHSLNSAAQ [V301S] | -0.344
3 | MRKPRAAVGSGHRKQAASQEGRQKHAKNNSQAKPSACDGLARQPEEVVLQASVSSYHLFRDVAEVTAFRGSLLSWYDQEKRDLPWRRRAEDEMDLDRRAYAVWVSEVMLQQTQVATVINYYTGWMQKWPTLQDLASASLEEVNQLWAGLGYYSRGRRLQEGARKVVEELGGHMPRTAETLQQLLPGVGRYTAGAIASIAFGQATGVVDGNVARVLCRVRAIGADPSSTLVSQQLWGLAQQLVDPARPGDFNQAAMELGATVCTPQRPLCSQCPVESLCRARQRVEQEQLLASGSLSGSPDMEECAPNTGQCHLCLPPSEPWDQTLGVVNFPRKASRKPPREESSATCVLEQPGALGAQILLVQRPNSGLLAGLWEFPSVTWEPSEQLQRKALLQELQRWAGPLPATHLRHLGEVVHTFSHIKLTYQVYGLALEGQTPVTTVPPGARWLTQEEFHTAAVSTAMKKVFRVYQGQQPGTCMGSKRSQVSSPCSRKKPRMGQQVLDNFFRSHISTDAHSLNSAAQ [V301M] | -0.126
4 | MRKPRAAVGSGHRKQAASQEGRQKHAKNNSQAKPSACDGLARQPEEVVLQASVSSYHLFRDVAEVTAFRGSLLSWYDQEKRDLPWRRRAEDEMDLDRRAYAVWVSEVMLQQTQVATVINYYTGWMQKWPTLQDLASASLEEVNQLWAGLGYYSRGRRLQEGARKVVEELGGHMPRTAETLQQLLPGVGRYTAGAIASIAFGQATGVVDGNVARVLCRVRAIGADPSSTLVSQQLWGLAQQLVDPARPGDFNQAAMELGATVCTPQRPLCSQCPVESLCRARQRVEQEQLLASGSLSGSPDREECAPNTGQCHLCLPPSEPWDQTLGVVNFPRKASRKPPREESSATCVLEQPGALGAQILLVQRPNSGLLAGLWEFPSVTWEPSEQLQRKALLQELQRWAGPLPATHLRHLGEVVHTFSHIKLTYQVYGLALEGQTPVTTVPPGARWLTQEEFHTAAVSTAMKKVFRVYQGQQPGTCMGSKRSQVSSPCSRKKPRMGQQVLDNFFRSHISTDAHSLNSAAQ [V301R] | -0.275
5 | MRKPRAAVGSGHRKQAASQEGRQKHAKNNSQAKPSACDGLARQPEEVVLQASVSSYHLFRDVAEVTAFRGSLLSWYDQEKRDLPWRRRAEDEMDLDRRAYAVWVSEVMLQQTQVATVINYYTGWMQKWPTLQDLASASLEEVNQLWAGLGYYSRGRRLQEGARKVVEELGGHMPRTAETLQQLLPGVGRYTAGAIASIAFGQATGVVDGNVARVLCRVRAIGADPSSTLVSQQLWGLAQQLVDPARPGDFNQAAMELGATVCTPQRPLCSQCPVESLCRARQRVEQEQLLASGSLSGSPDQEECAPNTGQCHLCLPPSEPWDQTLGVVNFPRKASRKPPREESSATCVLEQPGALGAQILLVQRPNSGLLAGLWEFPSVTWEPSEQLQRKALLQELQRWAGPLPATHLRHLGEVVHTFSHIKLTYQVYGLALEGQTPVTTVPPGARWLTQEEFHTAAVSTAMKKVFRVYQGQQPGTCMGSKRSQVSSPCSRKKPRMGQQVLDNFFRSHISTDAHSLNSAAQ [V301Q] | -0.242
6 | MRKPRAAVGSGHRKQAASQEGRQKHAKNNSQAKPSACDGLARQPEEVVLQASVSSYHLFRDVAEVTAFRGSLLSWYDQEKRDLPWRRRAEDEMDLDRRAYAVWVSEVMLQQTQVATVINYYTGWMQKWPTLQDLASASLEEVNQLWAGLGYYSRGRRLQEGARKVVEELGGHMPRTAETLQQLLPGVGRYTAGAIASIAFGQATGVVDGNVARVLCRVRAIGADPSSTLVSQQLWGLAQQLVDPARPGDFNQAAMELGATVCTPQRPLCSQCPVESLCRARQRVEQEQLLASGSLSGSPDIEECAPNTGQCHLCLPPSEPWDQTLGVVNFPRKASRKPPREESSATCVLEQPGALGAQILLVQRPNSGLLAGLWEFPSVTWEPSEQLQRKALLQELQRWAGPLPATHLRHLGEVVHTFSHIKLTYQVYGLALEGQTPVTTVPPGARWLTQEEFHTAAVSTAMKKVFRVYQGQQPGTCMGSKRSQVSSPCSRKKPRMGQQVLDNFFRSHISTDAHSLNSAAQ [V301I] | -0.0154
7 | MRKPRAAVGSGHRKQAASQEGRQKHAKNNSQAKPSACDGLARQPEEVVLQASVSSYHLFRDVAEVTAFRGSLLSWYDQEKRDLPWRRRAEDEMDLDRRAYAVWVSEVMLQQTQVATVINYYTGWMQKWPTLQDLASASLEEVNQLWAGLGYYSRGRRLQEGARKVVEELGGHMPRTAETLQQLLPGVGRYTAGAIASIAFGQATGVVDGNVARVLCRVRAIGADPSSTLVSQQLWGLAQQLVDPARPGDFNQAAMELGATVCTPQRPLCSQCPVESLCRARQRVEQEQLLASGSLSGSPDTEECAPNTGQCHLCLPPSEPWDQTLGVVNFPRKASRKPPREESSATCVLEQPGALGAQILLVQRPNSGLLAGLWEFPSVTWEPSEQLQRKALLQELQRWAGPLPATHLRHLGEVVHTFSHIKLTYQVYGLALEGQTPVTTVPPGARWLTQEEFHTAAVSTAMKKVFRVYQGQQPGTCMGSKRSQVSSPCSRKKPRMGQQVLDNFFRSHISTDAHSLNSAAQ [V301T] | -0.284
8 | MRKPRAAVGSGHRKQAASQEGRQKHAKNNSQAKPSACDGLARQPEEVVLQASVSSYHLFRDVAEVTAFRGSLLSWYDQEKRDLPWRRRAEDEMDLDRRAYAVWVSEVMLQQTQVATVINYYTGWMQKWPTLQDLASASLEEVNQLWAGLGYYSRGRRLQEGARKVVEELGGHMPRTAETLQQLLPGVGRYTAGAIASIAFGQATGVVDGNVARVLCRVRAIGADPSSTLVSQQLWGLAQQLVDPARPGDFNQAAMELGATVCTPQRPLCSQCPVESLCRARQRVEQEQLLASGSLSGSPDNEECAPNTGQCHLCLPPSEPWDQTLGVVNFPRKASRKPPREESSATCVLEQPGALGAQILLVQRPNSGLLAGLWEFPSVTWEPSEQLQRKALLQELQRWAGPLPATHLRHLGEVVHTFSHIKLTYQVYGLALEGQTPVTTVPPGARWLTQEEFHTAAVSTAMKKVFRVYQGQQPGTCMGSKRSQVSSPCSRKKPRMGQQVLDNFFRSHISTDAHSLNSAAQ [V301N] | -0.386
9 | MRKPRAAVGSGHRKQAASQEGRQKHAKNNSQAKPSACDGLARQPEEVVLQASVSSYHLFRDVAEVTAFRGSLLSWYDQEKRDLPWRRRAEDEMDLDRRAYAVWVSEVMLQQTQVATVINYYTGWMQKWPTLQDLASASLEEVNQLWAGLGYYSRGRRLQEGARKVVEELGGHMPRTAETLQQLLPGVGRYTAGAIASIAFGQATGVVDGNVARVLCRVRAIGADPSSTLVSQQLWGLAQQLVDPARPGDFNQAAMELGATVCTPQRPLCSQCPVESLCRARQRVEQEQLLASGSLSGSPDLEECAPNTGQCHLCLPPSEPWDQTLGVVNFPRKASRKPPREESSATCVLEQPGALGAQILLVQRPNSGLLAGLWEFPSVTWEPSEQLQRKALLQELQRWAGPLPATHLRHLGEVVHTFSHIKLTYQVYGLALEGQTPVTTVPPGARWLTQEEFHTAAVSTAMKKVFRVYQGQQPGTCMGSKRSQVSSPCSRKKPRMGQQVLDNFFRSHISTDAHSLNSAAQ [V301L] | -0.0363
10 | MRKPRAAVGSGHRKQAASQEGRQKHAKNNSQAKPSACDGLARQPEEVVLQASVSSYHLFRDVAEVTAFRGSLLSWYDQEKRDLPWRRRAEDEMDLDRRAYAVWVSEVMLQQTQVATVINYYTGWMQKWPTLQDLASASLEEVNQLWAGLGYYSRGRRLQEGARKVVEELGGHMPRTAETLQQLLPGVGRYTAGAIASIAFGQATGVVDGNVARVLCRVRAIGADPSSTLVSQQLWGLAQQLVDPARPGDFNQAAMELGATVCTPQRPLCSQCPVESLCRARQRVEQEQLLASGSLSGSPDKEECAPNTGQCHLCLPPSEPWDQTLGVVNFPRKASRKPPREESSATCVLEQPGALGAQILLVQRPNSGLLAGLWEFPSVTWEPSEQLQRKALLQELQRWAGPLPATHLRHLGEVVHTFSHIKLTYQVYGLALEGQTPVTTVPPGARWLTQEEFHTAAVSTAMKKVFRVYQGQQPGTCMGSKRSQVSSPCSRKKPRMGQQVLDNFFRSHISTDAHSLNSAAQ [V301K] | -0.283
11 | MRKPRAAVGSGHRKQAASQEGRQKHAKNNSQAKPSACDGLARQPEEVVLQASVSSYHLFRDVAEVTAFRGSLLSWYDQEKRDLPWRRRAEDEMDLDRRAYAVWVSEVMLQQTQVATVINYYTGWMQKWPTLQDLASASLEEVNQLWAGLGYYSRGRRLQEGARKVVEELGGHMPRTAETLQQLLPGVGRYTAGAIASIAFGQATGVVDGNVARVLCRVRAIGADPSSTLVSQQLWGLAQQLVDPARPGDFNQAAMELGATVCTPQRPLCSQCPVESLCRARQRVEQEQLLASGSLSGSPDWEECAPNTGQCHLCLPPSEPWDQTLGVVNFPRKASRKPPREESSATCVLEQPGALGAQILLVQRPNSGLLAGLWEFPSVTWEPSEQLQRKALLQELQRWAGPLPATHLRHLGEVVHTFSHIKLTYQVYGLALEGQTPVTTVPPGARWLTQEEFHTAAVSTAMKKVFRVYQGQQPGTCMGSKRSQVSSPCSRKKPRMGQQVLDNFFRSHISTDAHSLNSAAQ [V301W] | -0.211
12 | MRKPRAAVGSGHRKQAASQEGRQKHAKNNSQAKPSACDGLARQPEEVVLQASVSSYHLFRDVAEVTAFRGSLLSWYDQEKRDLPWRRRAEDEMDLDRRAYAVWVSEVMLQQTQVATVINYYTGWMQKWPTLQDLASASLEEVNQLWAGLGYYSRGRRLQEGARKVVEELGGHMPRTAETLQQLLPGVGRYTAGAIASIAFGQATGVVDGNVARVLCRVRAIGADPSSTLVSQQLWGLAQQLVDPARPGDFNQAAMELGATVCTPQRPLCSQCPVESLCRARQRVEQEQLLASGSLSGSPDHEECAPNTGQCHLCLPPSEPWDQTLGVVNFPRKASRKPPREESSATCVLEQPGALGAQILLVQRPNSGLLAGLWEFPSVTWEPSEQLQRKALLQELQRWAGPLPATHLRHLGEVVHTFSHIKLTYQVYGLALEGQTPVTTVPPGARWLTQEEFHTAAVSTAMKKVFRVYQGQQPGTCMGSKRSQVSSPCSRKKPRMGQQVLDNFFRSHISTDAHSLNSAAQ [V301H] | -0.166
